In patent US20260234242A1 (HAINAN SIMCERE ZAIMING PHARMACEUTICAL, published 2026):
Blank lines part the entries; values can stand above or below the binder they belong to.

Tests used:
[1] = target: T1, human CDH6 on tumor cells (OVCAR3 cells, PA-1 cells) (human, UniProt P55285 54-790); assay: FACS, OVCAR3 cells
T1 sequence: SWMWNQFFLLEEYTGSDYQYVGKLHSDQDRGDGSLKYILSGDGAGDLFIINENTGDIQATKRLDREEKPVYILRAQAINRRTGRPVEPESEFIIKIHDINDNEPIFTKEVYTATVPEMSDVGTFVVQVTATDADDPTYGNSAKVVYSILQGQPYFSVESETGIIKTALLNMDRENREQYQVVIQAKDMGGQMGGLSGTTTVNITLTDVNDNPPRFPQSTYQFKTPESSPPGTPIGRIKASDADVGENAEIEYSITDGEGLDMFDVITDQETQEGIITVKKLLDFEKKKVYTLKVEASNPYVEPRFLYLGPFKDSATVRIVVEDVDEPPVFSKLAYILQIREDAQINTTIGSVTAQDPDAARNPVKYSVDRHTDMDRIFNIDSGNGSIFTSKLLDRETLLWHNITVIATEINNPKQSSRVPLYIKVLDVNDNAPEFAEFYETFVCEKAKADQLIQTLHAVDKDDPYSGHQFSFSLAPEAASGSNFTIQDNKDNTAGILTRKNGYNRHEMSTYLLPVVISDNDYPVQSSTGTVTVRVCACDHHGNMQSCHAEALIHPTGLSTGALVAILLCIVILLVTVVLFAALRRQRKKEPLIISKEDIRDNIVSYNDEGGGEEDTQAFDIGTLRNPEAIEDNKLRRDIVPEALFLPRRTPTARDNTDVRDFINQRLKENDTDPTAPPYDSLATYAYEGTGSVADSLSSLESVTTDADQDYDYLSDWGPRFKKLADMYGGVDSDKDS
Description: OVCAR3 cells with high expression of CDH6 and PA-1 cells with moderate expression of CDH6 were used to detect the binding activity of the antibodies to the cells. […] The cells were washed once with PBS, counted, resuspended to 2×10⁶ cells/mL in an FACS buffer (PBS+2% FBS), and then added to a 96-well plate at 50 μL/well. The chimeric antibodies were diluted with FACS buffer (PBS+2% FBS) and added to the 96-well plate at 50 μL/well, and the plate was incubated at 4° C. for 1 h. […] The dilution was added to the 96-well plate at 50 μL/well, and the plate was incubated at 4° C. for 1 h. After the plates were centrifuged and washed 2 times with PBS, the cells were resuspended in an FACS buffer. The mean fluorescence intensity (MFI) was measured using FACS Canton II (BD). Analysis was performed by the GraphPad Prism software, data were fitted, and EC50 values were calculated. The chimeric antibodies tested had strong binding to both OVCAR3 cells and PA-1 cells.
According to the above sequences, heavy chain (HC) and light chain (LC) plasmids were constructed (the nucleic acid sequences encoding the VH and VL of the antibodies were recombined into an expression vector carrying a signal peptide (SEQ ID NO: 132, […]) and a heavy chain constant region/light chain constant region sequence to obtain recombinant plasmids expressing VH—CH1-Fc/VL-CL). According to the expression and purification methods in Example 2, the hCDH6-6 humanized antibodies were obtained, and the binding activity of the humanized antibodies was detected by ELISA and FACS (see 2.2 and 2.3 for the method).

[2] = target: T2, his-tagged human CDH6 extracellular region protein (hCDH6 ECD-his) (human, UniProt P55285 19-615); assay: ELISA, coated antigen; ELISA, coated hCDH6-his; later run beside the hCDH6-14 humanized antibodies (Table 19)
T2 construct: also called Human CDH6-his; hCDH6-his; not shown: his tag
T2 sequence: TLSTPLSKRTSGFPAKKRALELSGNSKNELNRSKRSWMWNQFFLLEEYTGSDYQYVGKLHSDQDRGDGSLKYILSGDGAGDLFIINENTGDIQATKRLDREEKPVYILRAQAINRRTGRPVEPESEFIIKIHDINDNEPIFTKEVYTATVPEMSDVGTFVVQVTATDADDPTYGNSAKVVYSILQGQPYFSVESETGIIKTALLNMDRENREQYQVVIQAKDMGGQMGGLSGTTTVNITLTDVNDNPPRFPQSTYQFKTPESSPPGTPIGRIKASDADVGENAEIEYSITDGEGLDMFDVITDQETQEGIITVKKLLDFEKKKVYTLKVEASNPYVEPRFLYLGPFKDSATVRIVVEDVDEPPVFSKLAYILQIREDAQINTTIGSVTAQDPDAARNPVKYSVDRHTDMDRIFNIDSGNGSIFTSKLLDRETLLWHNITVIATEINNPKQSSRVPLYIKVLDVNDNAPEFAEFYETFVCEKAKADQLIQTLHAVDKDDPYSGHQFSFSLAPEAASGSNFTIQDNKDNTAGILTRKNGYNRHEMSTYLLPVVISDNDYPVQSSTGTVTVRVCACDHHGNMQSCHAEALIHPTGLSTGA

[3] = target: T2, his-tagged human CDH6 extracellular …; assay: ELISA, coated antigen; ELISA, hCDH6 ECD-his coated at 1 µg/mL, antibody in solution; chimeric antibody run (Table 5)
Description: Human CDH6 protein (hCDH6 ECD-his, conventionally synthesized), monkey CDH6 protein (cynoCDH6 ECD-his, conventionally synthesized; the cynoCDH6 ECD sequence was derived from Uniprot #A0A2K5TW62 (19-615)), and murine CDH6 protein (mCDH6 ECD-his, conventionally synthesized; the mCDH6 ECD sequence was derived from Uniprot #P97326 (19-615)) were diluted with PBS to a final concentration of 1 μg/mL, and added to a 96-well ELISA plate at 100 μL/well. The plate was incubated at 4° C. overnight. The next day, the plate was washed 3 times with a plate washing solution (PBS+0.01% (v/v) Tween 20), and a blocking buffer (PBS+0.01% (v/v) Tween 20+2% (w/w) BSA) was added for blocking at room temperature for 2 h. The blocking buffer was discarded, and the plate was washed 3 times. The chimeric antibodies were diluted with 1% BSA+PBS (purchased from Cytiva, Cat. No. SH30264.01) and added to the 96-well plate at 50 μL/well. After incubation at 37° C. for 2 h, the plate was washed 3 times with a plate washing solution. […] The plate was incubated at 37° C. for 1 h and then washed 5 times with a plate washing solution. […] OD450 nm values were read using a microplate reader (Biotek). Analysis was performed by the GraphPad Prism software, data were fitted, and EC50 values were calculated. […]

EC50 [1]: 0.56 nM | Max MFI [1]: 14300 MFI
B1: hCDH6-6-H2L2 (antibody, V domains shown)
VH: EVQLVQSGAEVKKPGASVKVSCKASGYTFTDYYMAWVRQAPGQGLEWMGYIFPNSGGTDYSQKFKGRVTLTVDKSTSTVYMELSSLRSEDTAVYYCARELGADYGDYYAMDHWGQGTTVTVSS
VL: DIQMTQSPSSLSASVGDRVTITCRASENIDSYLAWYQQKPGKSPKLLVYSATLLADGVPSRFSGSGSGTDYTLTISSLQPEDFATYYCQHYYRTPPTFGQGTKLEIK
notes: Humanized

EC50 [2]: 0.034 nM | EC50 [3]: 0.044 nM
B2: CHI-CDH6-14 (antibody, human IgG1, kappa, V domains shown)
VH: QIQLQQSGPELVKPGTSVKISCKASGYTFTDNYINWVRQRPGQGLEWIGWIYPGTGNSYYNEKFKGKATLTVDTSSSTAYMQFSSLTSEDSAVYLCASSYGDSFDYWGQGTTLTVSS
VL: DIQMTQTTSSLSASLGNRVTISCRASQDIRNYLNWYQQKPDGTFKLLISYTSRLHSGVPSRFSGSGSGTDYSLTVSNLEPEDIATYYCQQYSQLPWTFGGGSRLEIKR
notes: also called CHI-hCDH6-14; CH1-CDH6-14

EC50 [1]: 0.68 nM | Max MFI [1]: 14100 MFI
B3: CHI-CDH6-6 (antibody, human IgG1, kappa, V domains shown)
VH: EVQLQQSGPELVKPGDSVKMSCKASGYTFTDYYMAWVRQSHRKSLEWIGYIFPNSGGTDYSQKFKGKATLTVDKSSSTVYMELHSLTSEDSAVYYCARELGADYGDYYAMDHWGQGTSVSVSS
VL: DIQMTQSPASLSASVGETVTITCRASENIDSYLAWYQQKQGKSPQLLVYSATLLADGVPSRFSGSGSGTQYSLKINSLKSEDVARYYCQHYYRTPPTFGSGTKLEIKR
notes: also called CHI-hCDH6-6; chimeric antibody of murine CDH6-6
